This is an account of results in article PMC2575792.

This assay has as its target T1, ICAM-1 fused to monomeric EGFP (mEGFP) or to mRFP1, P05362.
T1 chain: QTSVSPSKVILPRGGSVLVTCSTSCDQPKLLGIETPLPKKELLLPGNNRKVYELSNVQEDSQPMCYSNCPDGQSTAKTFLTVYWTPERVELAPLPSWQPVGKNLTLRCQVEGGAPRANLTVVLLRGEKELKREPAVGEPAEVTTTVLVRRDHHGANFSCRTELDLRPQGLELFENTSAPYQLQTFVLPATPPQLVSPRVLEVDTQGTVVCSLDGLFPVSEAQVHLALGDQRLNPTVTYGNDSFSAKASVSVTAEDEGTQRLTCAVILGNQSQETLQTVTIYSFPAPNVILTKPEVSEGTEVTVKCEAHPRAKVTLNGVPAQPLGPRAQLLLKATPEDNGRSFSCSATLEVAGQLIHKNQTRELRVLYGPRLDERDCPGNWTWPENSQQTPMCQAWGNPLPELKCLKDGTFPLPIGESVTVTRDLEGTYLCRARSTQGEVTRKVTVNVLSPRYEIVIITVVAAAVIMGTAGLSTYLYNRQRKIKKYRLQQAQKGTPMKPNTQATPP
Nature of the assay: FRET or BRET. The settings on record: remark: other sources report otherwise.

B1: ICAM-1 fused to monomeric EGFP (mEGFP) or to mRFP1, P05362 28-532 (receptor)
chain: QTSVSPSKVILPRGGSVLVTCSTSCDQPKLLGIETPLPKKELLLPGNNRKVYELSNVQEDSQPMCYSNCPDGQSTAKTFLTVYWTPERVELAPLPSWQPVGKNLTLRCQVEGGAPRANLTVVLLRGEKELKREPAVGEPAEVTTTVLVRRDHHGANFSCRTELDLRPQGLELFENTSAPYQLQTFVLPATPPQLVSPRVLEVDTQGTVVCSLDGLFPVSEAQVHLALGDQRLNPTVTYGNDSFSAKASVSVTAEDEGTQRLTCAVILGNQSQETLQTVTIYSFPAPNVILTKPEVSEGTEVTVKCEAHPRAKVTLNGVPAQPLGPRAQLLLKATPEDNGRSFSCSATLEVAGQLIHKNQTRELRVLYGPRLDERDCPGNWTWPENSQQTPMCQAWGNPLPELKCLKDGTFPLPIGESVTVTRDLEGTYLCRARSTQGEVTRKVTVNVLSPRYEIVIITVVAAAVIMGTAGLSTYLYNRQRKIKKYRLQQAQKGTPMKPNTQATPP
B1 had an FRET efficiency of 14 to 34% and a percent of pixels with positive FRET of 12%.
